Measurements taken from patent publication US20090297689A1.

How the values were obtained:
[1] = molecular target: sodium caseinate; assay: cell-based or functional assay
[2] = molecular target: casein hydrolysate; assay: cell-based or functional assay

peptidyl arginine deiminase (PAD) of Fusarium graminearum CBS166.57, over-expressed in Aspergillus niger and purified (enzyme)
arginine (amino acid analysis, 5 microliter PAD, 3 hours) [1]: 97.8% | arginine (amino acid analysis, 50 microliter PAD, 3 hours) [1]: 86.5% | arginine (amino acid analysis, 500 microliter PAD, 3 hours) [1]: 70.2% | citrulline (amino acid analysis, 5 microliter PAD, 3 hours) [1]: 0.8% | citrulline (amino acid analysis, 50 microliter PAD, 3 hours) [1]: 4.7% | citrulline (amino acid analysis, 500 microliter PAD, 3 hours) [1]: 10.5% | ornithine (amino acid analysis, 5 microliter PAD, 3 hours) [1]: 1.3% | ornithine (amino acid analysis, 50 microliter PAD, 3 hours) [1]: 8.8% | ornithine (amino acid analysis, 500 microliter PAD, 3 hours) [1]: 19.3% | arginine (amino acid analysis, 5 microliter PAD, 3 hours) [2]: 97.2% | arginine (amino acid analysis, 50 microliter PAD, 3 hours) [2]: 86.1% | arginine (amino acid analysis, 500 microliter PAD, 3 hours) [2]: 60.4% | citrulline (amino acid analysis, 5 microliter PAD, 3 hours) [2]: 0.9% | citrulline (amino acid analysis, 50 microliter PAD, 3 hours) [2]: 5% | citrulline (amino acid analysis, 500 microliter PAD, 3 hours) [2]: 15.1% | ornithine (amino acid analysis, 5 microliter PAD, 3 hours) [2]: 1.9% | ornithine (amino acid analysis, 50 microliter PAD, 3 hours) [2]: 8.9% | ornithine (amino acid analysis, 500 microliter PAD, 3 hours) [2]: 24.5%
